From IntAct's records for PubMed 16814718

B1: Recombination protein 107 (Saccharomyces cerevisiae), P21651 (parent)
chain: MVARGRTDEISTDVSEANSEHSLMITETSSPFRSIFSHSGKVANAGALEESDKQILEWAGKLELESMELRENSDKLIKVLNENSKTLCKSLNKFNQLLEQDAATNGNVKTLIKDLASQIENQLDKVSTAMLSKGDEKKTKSDSSYRQVLVEEISRYNSKITRHVTNKQHETEKSMRCTQEMLFNVGSQLEDVHKVLLSLSKDMHSLQTRQTALEMAFREKADHAYDRPDVSLNGTTLLHDMDEAHDKQRKKSVPPPRMMVTRSMKRRRSSSPTLSTSQNHNSEDNDDASHRLKRAARTIIPWEELRPDTLESEL
partner: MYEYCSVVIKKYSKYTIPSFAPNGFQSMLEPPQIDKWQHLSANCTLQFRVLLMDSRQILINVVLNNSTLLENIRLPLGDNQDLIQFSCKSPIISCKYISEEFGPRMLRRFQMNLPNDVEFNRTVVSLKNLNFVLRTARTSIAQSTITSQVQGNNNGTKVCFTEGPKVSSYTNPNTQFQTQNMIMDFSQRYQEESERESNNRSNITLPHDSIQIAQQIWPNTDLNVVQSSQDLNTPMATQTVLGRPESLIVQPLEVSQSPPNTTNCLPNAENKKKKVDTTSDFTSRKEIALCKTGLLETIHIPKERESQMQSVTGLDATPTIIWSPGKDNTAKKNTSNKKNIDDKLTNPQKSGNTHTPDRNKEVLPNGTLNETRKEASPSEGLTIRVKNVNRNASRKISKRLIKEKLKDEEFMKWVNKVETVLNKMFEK
B2: Recombination protein 107 (Saccharomyces cerevisiae), P21651 (parent)
chain: B1 chain
partner: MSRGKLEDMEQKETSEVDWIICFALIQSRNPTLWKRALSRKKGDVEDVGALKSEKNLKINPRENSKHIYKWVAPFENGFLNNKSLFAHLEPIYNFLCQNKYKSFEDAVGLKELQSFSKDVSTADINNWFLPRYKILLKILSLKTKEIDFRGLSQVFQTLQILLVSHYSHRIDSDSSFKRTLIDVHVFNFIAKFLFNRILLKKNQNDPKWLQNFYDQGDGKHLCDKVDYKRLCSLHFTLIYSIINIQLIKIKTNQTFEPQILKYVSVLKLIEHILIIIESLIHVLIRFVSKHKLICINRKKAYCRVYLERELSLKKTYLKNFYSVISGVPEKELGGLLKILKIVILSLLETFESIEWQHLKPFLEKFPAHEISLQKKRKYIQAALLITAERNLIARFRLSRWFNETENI
B3: Recombination protein 107 (Saccharomyces cerevisiae), P21651 (parent)
chain: B1 chain
partner: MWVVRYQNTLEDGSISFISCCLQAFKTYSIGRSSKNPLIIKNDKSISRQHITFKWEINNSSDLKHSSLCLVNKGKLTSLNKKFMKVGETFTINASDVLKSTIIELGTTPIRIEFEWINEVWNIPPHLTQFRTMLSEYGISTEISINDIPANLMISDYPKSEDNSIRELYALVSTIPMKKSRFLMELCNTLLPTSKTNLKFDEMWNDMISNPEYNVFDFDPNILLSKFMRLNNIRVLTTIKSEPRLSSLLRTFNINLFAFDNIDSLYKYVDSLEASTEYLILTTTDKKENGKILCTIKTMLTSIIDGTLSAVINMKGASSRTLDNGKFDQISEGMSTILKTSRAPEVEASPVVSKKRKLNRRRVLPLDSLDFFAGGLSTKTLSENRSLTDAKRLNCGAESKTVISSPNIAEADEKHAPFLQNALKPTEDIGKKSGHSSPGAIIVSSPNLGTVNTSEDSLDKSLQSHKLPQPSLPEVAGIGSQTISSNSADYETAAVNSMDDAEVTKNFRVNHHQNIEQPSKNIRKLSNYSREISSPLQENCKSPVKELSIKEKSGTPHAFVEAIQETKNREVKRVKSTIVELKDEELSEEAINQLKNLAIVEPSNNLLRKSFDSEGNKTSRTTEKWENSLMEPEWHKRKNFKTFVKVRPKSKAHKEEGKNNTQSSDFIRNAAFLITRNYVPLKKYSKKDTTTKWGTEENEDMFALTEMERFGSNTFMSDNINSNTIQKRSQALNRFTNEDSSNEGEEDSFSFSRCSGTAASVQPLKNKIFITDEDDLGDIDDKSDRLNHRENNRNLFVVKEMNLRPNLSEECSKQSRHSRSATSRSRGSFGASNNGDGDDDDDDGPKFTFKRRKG

Variants of: B1
Settings: with re114_yeast REC114, P32841

| effect of a mutation on the interaction | Variant |
| --- | --- |
| with no effect | S271A |
| disrupting interaction strength | S30A |
| disrupting interaction strength | S30A;S271A |

Variants of: B2
Settings: with mei4_yeast MEI4, P29467

| effect of a mutation on the interaction | Variant |
| --- | --- |
| with no effect | S271A |
| decreasing interaction strength | S30A |
| decreasing interaction strength | S30A;S271A |

Variants of: B3
Settings: with xrs2_yeast XRS2, P33301

| effect of a mutation on the interaction | Variant |
| --- | --- |
| disrupting interaction strength | S30A;S271A |
| disrupting interaction strength | S30A |
| decreasing interaction strength | S271A |
